Source: patent publication US20210395731, “METHOD AND COMPOSITION FOR INHIBITING GROWTH OF BACTERIUM” (City University of Hong Kong, published 2021)

Tests used:
[1] = biological target: T1, Hfq (Pseudomonas aeruginosa, UniProt Q9HUM0 Q9HUM0:1-82); test: EMSA; apparent Kd, Hill fit; two cooperative binding sites; 50 mM Tris, 250 mM NH4Cl pH 7.5, tRNA, 37 C; exact value in figure only; details: tags: His tag (pET28a, TALON purified, anti-His6 used), chain copies: 6 inferred, label: 32P-UTP internal
T1 sequence (Q9HUM0 whole entry, one chain of several): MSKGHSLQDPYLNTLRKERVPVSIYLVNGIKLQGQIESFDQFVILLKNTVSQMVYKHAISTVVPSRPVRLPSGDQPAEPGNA

[2] = biological target: T1, Hfq; test: EMSA; apparent Kd, Hill fit; 50 mM Tris, 250 mM NH4Cl pH 7.5, tRNA, 37 C; exact value in figure only; details: tags: His tag (pET28a, TALON purified, anti-His6 used); chain copies: 6 inferred; label: 32P-UTP internal; I-shaped terminator

B1: IGR2780 sRNA (ssRNA)
RNA: GCUGUACAUCCCUGGAUCCUUUCCCGGCCUGCUCCACGCGGCCGGGAUUUUUUUUGCCC
Kd ([1]; terminator stem-loop with poly(U) stretch): < 150 nM

B2: AS1974 sRNA (ssRNA)
RNA: GAAUGUUCUUAAAUAUCCUCAAGCGGUUGCGCGGCCAGGCACUGGUCGAGGAGAUGCACCAGGGUGGCCUGUUCCACCGGGGUGAGCGGGGCAAACAACUCGUCAUGCACGCGUGACAUGAUGGCCUC
Kd [2]: < 150 nM

B3: AS2779 sRNA (ssRNA)
RNA: GCGAACCCCAAGGGUAUUUCCCGACCAGCUCCCCCGCGGUCGGGAUUUUUUUUUGCCUGUCGCUCAGCGCUUCGGGUCGAAGGGCGAAUAGCCCCGCCGGCGCAGGCUCGCCAGGGGCGCGAACAGCGG
Kd ([1]; I-shaped terminator, canonical terminator in the middle): < 150 nM
